Source: article doi:10.1101/2022.11.28.518166, “The direct interaction with transcriptional factor TEAD4 implied a straightforward regulation mechanism of tumor suppressor NF2” (bioRxiv, 2022)
Blank lines part the entries; values can stand above or below the binder they belong to.

B1: TEAD4 YBD domain (217-434) with N-terminal SUMO and 6xHis tag (domain or fragment, human, UniProt Q15561 217-434, looked up)
chain: RSVASSKLWMLEFSAFLEQQQDPDTYNKHLFVHIGQSSPSYSDPYLEAVDIRQIYDKFPEKKGGLKDLFERGPSNAFFLVKFWADLNTNIEDEGSSFYGVSSQYESPENMIITCSTKVCSFGKQVVEKVETEYARYENGHYSYRIHRSPLCEYMINFIHKLKHLPEKYMMNSVLENFTILQVVTNRDTQETLLCIAYVFEVSASEHGAQHHIYRLVKE
notes: Detected in the pull-downs with an antibody against 6xHis; also called SUMO-TEAD4; SUMO-tagged TEAD4-YBD; source: Escherichia coli BL21 (DE3), purified (Ni-NTA, Superdex 200); not shown: SUMO, N-terminal, kept; His6, N-terminal, kept

Tests used:
Settings in all cases: both partners purified
[1] = target: T1, full-length NF2 with GST tag (UniProt P35240 1-595); assay: pull-down; GST-NF2 (full length, truncations) bound to GST resin in PBS 1 h at 4 °C, incubated with purified SUMO-TEAD4 in PBS 1 h at 4 °C, washed four times; SDS-PAGE and anti-6xHis blot; in Figure 2C with or without co-incubated FERM domain
T1 construct: NF2 (Merlin), full length; also called GST-NF2; GST-NF2-FL; source: Escherichia coli, purified
T1 sequence (looked up): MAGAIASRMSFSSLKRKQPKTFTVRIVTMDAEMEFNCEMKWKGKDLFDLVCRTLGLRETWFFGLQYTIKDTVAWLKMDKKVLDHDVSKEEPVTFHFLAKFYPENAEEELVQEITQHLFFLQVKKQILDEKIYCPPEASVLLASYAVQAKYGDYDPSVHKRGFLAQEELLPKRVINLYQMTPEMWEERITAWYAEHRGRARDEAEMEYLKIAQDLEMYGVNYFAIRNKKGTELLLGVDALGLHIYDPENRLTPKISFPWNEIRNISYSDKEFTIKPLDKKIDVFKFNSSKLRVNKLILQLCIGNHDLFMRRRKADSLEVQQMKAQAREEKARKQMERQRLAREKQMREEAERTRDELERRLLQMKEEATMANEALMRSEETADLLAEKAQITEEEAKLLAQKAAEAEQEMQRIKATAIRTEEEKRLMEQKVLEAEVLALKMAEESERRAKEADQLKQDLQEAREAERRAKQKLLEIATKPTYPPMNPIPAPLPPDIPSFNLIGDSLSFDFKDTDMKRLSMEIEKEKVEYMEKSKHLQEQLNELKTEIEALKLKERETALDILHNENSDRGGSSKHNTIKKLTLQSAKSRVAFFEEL

[2] = target: T2, GST-NF2 C-terminal half (342-595 aa) (UniProt P35240 342-595); assay: as above
T2 sequence (looked up): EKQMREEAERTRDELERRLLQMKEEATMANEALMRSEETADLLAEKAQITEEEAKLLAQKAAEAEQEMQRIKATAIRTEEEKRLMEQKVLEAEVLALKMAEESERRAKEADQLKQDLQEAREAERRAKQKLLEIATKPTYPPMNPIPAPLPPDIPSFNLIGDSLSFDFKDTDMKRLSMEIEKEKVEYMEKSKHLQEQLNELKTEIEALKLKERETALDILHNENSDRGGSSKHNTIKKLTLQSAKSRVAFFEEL

[3] = target: T3, GST-NF2 N-terminal FERM domain (1-341 aa) (UniProt P35240 1-341); assay: as above
T3 construct: also called GST-NF2-FERM WT
T3 sequence (looked up): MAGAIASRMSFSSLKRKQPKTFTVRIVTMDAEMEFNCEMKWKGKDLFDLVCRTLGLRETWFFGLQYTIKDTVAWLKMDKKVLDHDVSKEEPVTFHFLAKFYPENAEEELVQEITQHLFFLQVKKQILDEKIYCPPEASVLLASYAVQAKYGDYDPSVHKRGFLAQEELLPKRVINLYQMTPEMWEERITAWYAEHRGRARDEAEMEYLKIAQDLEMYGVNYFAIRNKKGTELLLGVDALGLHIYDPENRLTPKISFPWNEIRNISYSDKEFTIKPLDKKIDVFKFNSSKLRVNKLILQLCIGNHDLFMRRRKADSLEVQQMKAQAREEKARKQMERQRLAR

MBP-NF2 A585W mutant = target: T4, MBP-NF2 A585W mutant (UniProt P35240 18-595, A585W); assay: pull-down; MBP-NF2 bound to MBP resin in PBS 1 h at 4 °C, incubated with purified SUMO-TEAD4 in PBS 1 h at 4 °C, washed four times; SDS-PAGE and anti-6xHis blot
T4 construct: source: purified as MBP-NF2; not shown: MBP, N-terminal, kept
T4 sequence (looked up): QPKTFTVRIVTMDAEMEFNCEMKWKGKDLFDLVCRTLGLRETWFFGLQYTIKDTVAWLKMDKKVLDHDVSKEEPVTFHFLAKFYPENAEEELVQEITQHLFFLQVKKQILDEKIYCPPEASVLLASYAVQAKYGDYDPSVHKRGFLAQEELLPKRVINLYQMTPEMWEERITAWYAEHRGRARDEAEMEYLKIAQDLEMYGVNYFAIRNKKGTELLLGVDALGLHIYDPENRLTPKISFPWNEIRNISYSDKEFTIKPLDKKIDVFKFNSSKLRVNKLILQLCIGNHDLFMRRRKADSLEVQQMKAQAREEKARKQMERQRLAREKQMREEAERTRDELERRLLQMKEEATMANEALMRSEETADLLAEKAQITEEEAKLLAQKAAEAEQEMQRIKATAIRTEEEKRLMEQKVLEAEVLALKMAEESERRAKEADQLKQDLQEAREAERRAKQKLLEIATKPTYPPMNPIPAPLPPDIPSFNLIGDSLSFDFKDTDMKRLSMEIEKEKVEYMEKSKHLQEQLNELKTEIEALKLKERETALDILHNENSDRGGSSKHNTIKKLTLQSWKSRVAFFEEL

MBP-NF2 (18-595) WT = target: T5, MBP-NF2 (18-595) WT (UniProt P35240 18-595); assay: as above
T5 construct: also called MBP-NF2 WT; MBP-NF2 FL; source: purified (amylose resin, Superdex 200); not shown: MBP, N-terminal, kept
T5 sequence (looked up): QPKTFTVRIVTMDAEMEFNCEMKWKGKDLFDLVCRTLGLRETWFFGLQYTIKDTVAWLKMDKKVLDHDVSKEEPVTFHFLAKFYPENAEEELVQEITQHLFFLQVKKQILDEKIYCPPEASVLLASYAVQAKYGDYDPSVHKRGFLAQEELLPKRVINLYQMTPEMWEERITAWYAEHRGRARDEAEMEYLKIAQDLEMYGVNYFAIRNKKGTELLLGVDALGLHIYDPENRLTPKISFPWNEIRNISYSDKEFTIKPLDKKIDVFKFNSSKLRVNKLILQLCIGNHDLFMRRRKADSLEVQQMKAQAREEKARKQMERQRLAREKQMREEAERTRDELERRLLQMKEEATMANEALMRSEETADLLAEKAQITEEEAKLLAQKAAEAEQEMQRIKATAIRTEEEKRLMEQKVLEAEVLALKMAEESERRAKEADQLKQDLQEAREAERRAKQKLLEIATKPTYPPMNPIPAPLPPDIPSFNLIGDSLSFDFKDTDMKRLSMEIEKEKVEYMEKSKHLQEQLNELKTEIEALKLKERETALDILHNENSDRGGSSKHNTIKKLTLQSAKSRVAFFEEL

[4] = target: B1; assay: pull-down; GST-NF2 (full length, truncations) bound to GST resin in PBS 1 h at 4 °C, incubated with purified SUMO-TEAD4 in PBS 1 h at 4 °C, washed four times; SDS-PAGE and anti-6xHis blot; in Figure 2C with or without co-incubated FERM domain
[5] = target: B1; assay: pull-down; in vitro competitive binding assay: YAP-TEAD4 complex on GST-YAP with a dose addition of NF2; SDS-PAGE

binding result [5]: binds
B3: GST-YAP 47-131 (domain or fragment, UniProt P46937 47-131, looked up)
chain: APPAGHQIVHVRGDSETDLEALFNAVMNPKTANVPQTVPMRLRKLPDSFFKPPEPKSHSRQASTDAGTAGALTPQHVRAHSSPAS
notes: YAP (Yes-associated protein), residues 47-131

binding result (MBP-NF2 (18-595) WT): binds
B4: TEAD4-2CS (C335S/C367S), non-palmitoylated mutant of TEAD4-YBD (domain or fragment, human, UniProt Q15561 217-434, looked up)
chain: RSVASSKLWMLEFSAFLEQQQDPDTYNKHLFVHIGQSSPSYSDPYLEAVDIRQIYDKFPEKKGGLKDLFERGPSNAFFLVKFWADLNTNIEDEGSSFYGVSSQYESPENMIITCSTKVSSFGKQVVEKVETEYARYENGHYSYRIHRSPLSEYMINFIHKLKHLPEKYMMNSVLENFTILQVVTNRDTQETLLCIAYVFEVSASEHGAQHHIYRLVKE
notes: TEAD4, human, YBD, residues 217-434 as TEAD4-YBDHis, with C335S and C367S; source: recombinant; not shown: His6, N-terminal, kept

Continued, binder first:

Binder: B1
binding result [1]: binds
binding result [2]: binds
binding result [3]: binds
binding result (MBP-NF2 A585W mutant): binds
binding result (MBP-NF2 (18-595) WT): binds

Binder: KLKERETALDILHNENSDRGGSSKHNTIKKLTLQSAKSRVAFFEEL (domain or fragment, UniProt P35240 550-595, looked up, also called C-terminal tail) [GST-NF2 tail region (C-tail, 550-595 aa)]
binding result [4]: binds

B2: GST-NF2-507-595 WT (domain or fragment, UniProt P35240 507-595, looked up)
chain: FDFKDTDMKRLSMEIEKEKVEYMEKSKHLQEQLNELKTEIEALKLKERETALDILHNENSDRGGSSKHNTIKKLTLQSAKSRVAFFEEL
binding result [4]: binds
